Experimental data reported in patent US20200271647A1 (SEOUL NATIONAL UNIVERSITY HOSPITAL, published 2020).
Substitutions are numbered along the chain they refer to.

B1: VH5/Vk0 (antibody, V domains shown)
VH: QVQLVQSGAEVKKPGSSVKVSCQGSGYSFPTHWITWVRQAPGQGLEWMGTIDPTDSYNFYGPSFQGRVTITADSSTSTAYMELSSLRSEDTAVYYCARDGNYYDSRGYYYDTFDMWGQGTLVTVSS
VL: DIQMTQSPSFLSASVGDRVTITCRASQGISTYLAWYQQKPGTAPKLLIYSASTLESGVPSRFSGSGSGTDFTLTISSLQPEDSATYYCQQADSFPLTFGGGTKVEIK
notes: CDR-grafted variant of the IgG1-based anti-cMet antibody 1E4; also called anti-cMet candidate antibody VH5/Vk0
B2: VH2/Vk2 (antibody, V domains shown)
VH: EVQLVQSGAEVKKPGESLKISCKGSGYSFPTHWITWVRQMPGKGLEWMGTIDPTDSYNFYGPSFQGQVTISADKSISTAYLQWSSLKASDTAMYYCARDGNYYDSRGYYYDTFDMWGQGTLVTVSS
VL: B1 VL with F10S, T42K, S83F
B3: VH2/Vk0 (antibody, V domains shown)
VH: B2 VH
VL: B1 VL
B4: VH0/Vk2 (antibody, V domains shown)
VH: B2 VH with E1Q, K19R, K23Q, Q67H, K74S, I76S
VL: B1 VL with F10S, T42K, S83F
notes: also called anti-cMet candidate antibody VH0/Vk2
B5: VH6/Vk0 (antibody, V domains shown)
VH: B1 VH with Q23K, G24A, S74K
VL: B1 VL
notes: CDR-grafted variant of the IgG1-based anti-cMet antibody 1E4; also called anti-cMet candidate antibody VH6/Vk0
B6: VH4/Vk0 (antibody, V domains shown)
VH: B1 VH with V93M
VL: B1 VL
notes: CDR-grafted variant of the IgG1-based anti-cMet antibody 1E4; also called anti-cMet candidate antibody VH4/Vk0
B7: VH6/Vk2 (antibody, V domains shown)
VH: B1 VH with Q23K, G24A, S74K
VL: B1 VL with F10S, T42K, S83F
notes: CDR-grafted variant of the IgG1-based anti-cMet antibody 1E4; also called anti-cMet candidate antibody VH6/Vk2
B8: VH5/Vk2 (antibody, V domains shown)
VH: B1 VH
VL: B1 VL with F10S, T42K, S83F
notes: CDR-grafted variant of the IgG1-based anti-cMet antibody 1E4; also called anti-cMet candidate antibody VH5/Vk2
B9: VH4/Vk2 (antibody, V domains shown)
VH: B1 VH with V93M
VL: B1 VL with F10S, T42K, S83F
notes: CDR-grafted variant of the IgG1-based anti-cMet antibody 1E4; also called anti-cMet candidate antibody VH4/Vk2
B10: VH0/Vk0 (antibody, V domains shown)
VH: B2 VH with E1Q, K19R, K23Q, Q67H, K74S, I76S
VL: B1 VL
notes: Derived from the IgG1-based 1E4 by a K to R change in the CH1 domain (G1m(3) allotype) and an S to T change in the light chain constant region (Km3 allotype); also called VMDO2 VH0/Vk0

Columns and labels:
[1] = target: c-Met protein receptor on human umbilical vein endothelial cells (HUVEC) (human, UniProt P08581 25-1390); assay: cell-based or functional assay
[2] = target: T1, human c-Met antigen (Sino Biological) (human, UniProt P08581 25-932); assay: derived from SPR KD; index 1 divided by the ratio of VH0/Vk0
T1 construct: Bought antigen used as the analyte in SPR; also called hepatocyte growth factor receptor; HGFR
Description: (§1) After combining the above variants, each combination was subjected to measurement of a binding ability (that is, affinity). Then, using BIACORE T200 (serial no. 1909913) device, BIACORE T200 Control Software V2.0.1 and BIACORE T200 Evaluation Software V3.0 (GE Healthcare, Uppsala, Sweden) analysis program, affinity of each candidate antibody to the antigen, c-Met, was determined along with a dissociation constant (KD value). After fixing the anti-cMet antibody to be analyzed on a protein ACM5 chip (GE Healthcare, Little Chalfont, UK), sensorgrams were acquired by flowing human c-Met antigen (Sino Biological, Beijing, China) at different concentrations in a range of 0.25 to 2 nM over the antibody. Based on the acquired sensorgrams, rate constants kₒₙ and koff were measured and KD value was calculated from a ratio of koff/kₒₙ. The calculated results are shown in Table 10 below, wherein 10 analyzed antibodies were listed in the order of higher affinity to lower affinity.
(§2) In order to determine a final candidate group from the above selected candidate antibodies, standards for determination were subdivided into expression level, affinity, thermal stability and biopotency, and used for comparison. Generally, considering production time and costs, the expression level among the above standards is regarded as the most important indicator. Accordingly, in first consideration of smooth antibody production, the present inventors have excluded the candidate antibodies with an expression level of less than […]. Thereafter, compared to the reference antibody (VH0/Vk0), improvement of each candidate antibody was converted into a numerical value from each of selection indexes. Then, an assay value of the candidate antibody measured from the selection index was divided by an average assay value to obtain a ratio (index 1). This index 1 was again divided by a ratio of VH0/Vk0 to obtain index 2, which in turn, is normalized (Tables 12 to 15). Further, these numerical values analyzed from four selection indexes (that is, the above indicators) were subjected to multiplying operation, and the candidate antibodies were overall compared with respect to the four selection indexes. Therefore, the finally resultant values (index 3) were listed in the order (highest first).

[3] = target: T1, human c-Met antigen (Sino Biological); assay: SPR (BIACORE T200), antibody captured on protein A CM5 chip, human c-Met as analyte
Description: as §1

[4] = target: T1, human c-Met antigen (Sino Biological); assay: SPR (BIACORE T200), antibody captured on protein A CM5 chip, human c-Met 0.25 to 2 nM as analyte
Description: as §1

[5] = target: T1, human c-Met antigen (Sino Biological); assay: derived from SPR KD (BIACORE T200); values fit 3.52/KD, i.e. relative to the best KD (VH5/Vk0); reference not given
Description: as §1, §2

T1 sequence (P08581 25-932 limits assumed): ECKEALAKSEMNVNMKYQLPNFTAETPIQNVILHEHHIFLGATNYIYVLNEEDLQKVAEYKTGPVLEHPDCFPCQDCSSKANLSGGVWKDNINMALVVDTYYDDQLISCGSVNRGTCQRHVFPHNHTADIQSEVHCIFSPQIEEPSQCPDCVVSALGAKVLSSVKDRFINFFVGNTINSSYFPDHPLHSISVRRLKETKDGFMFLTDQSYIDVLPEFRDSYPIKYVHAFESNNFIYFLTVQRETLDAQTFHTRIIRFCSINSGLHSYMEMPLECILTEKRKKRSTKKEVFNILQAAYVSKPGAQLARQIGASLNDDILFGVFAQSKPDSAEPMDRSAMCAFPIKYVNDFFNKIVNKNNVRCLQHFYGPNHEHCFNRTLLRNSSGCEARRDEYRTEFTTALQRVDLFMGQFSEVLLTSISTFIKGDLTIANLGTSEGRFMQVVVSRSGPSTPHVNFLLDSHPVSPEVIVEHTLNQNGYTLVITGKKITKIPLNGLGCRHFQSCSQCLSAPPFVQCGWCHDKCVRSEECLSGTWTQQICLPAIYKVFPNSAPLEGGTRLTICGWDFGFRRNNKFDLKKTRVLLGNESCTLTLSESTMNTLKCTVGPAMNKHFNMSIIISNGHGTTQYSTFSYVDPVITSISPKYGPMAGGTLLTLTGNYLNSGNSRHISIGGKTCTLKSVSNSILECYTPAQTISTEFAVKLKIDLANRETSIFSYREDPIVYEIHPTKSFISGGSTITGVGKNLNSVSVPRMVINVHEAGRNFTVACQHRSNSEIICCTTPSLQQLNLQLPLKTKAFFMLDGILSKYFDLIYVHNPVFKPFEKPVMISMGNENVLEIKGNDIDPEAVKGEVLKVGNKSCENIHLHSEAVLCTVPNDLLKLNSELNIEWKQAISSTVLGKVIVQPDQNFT
Sequence of c-Met protein receptor on human umbilical vein endothelial cells (HUVEC) (P08581 25-1390): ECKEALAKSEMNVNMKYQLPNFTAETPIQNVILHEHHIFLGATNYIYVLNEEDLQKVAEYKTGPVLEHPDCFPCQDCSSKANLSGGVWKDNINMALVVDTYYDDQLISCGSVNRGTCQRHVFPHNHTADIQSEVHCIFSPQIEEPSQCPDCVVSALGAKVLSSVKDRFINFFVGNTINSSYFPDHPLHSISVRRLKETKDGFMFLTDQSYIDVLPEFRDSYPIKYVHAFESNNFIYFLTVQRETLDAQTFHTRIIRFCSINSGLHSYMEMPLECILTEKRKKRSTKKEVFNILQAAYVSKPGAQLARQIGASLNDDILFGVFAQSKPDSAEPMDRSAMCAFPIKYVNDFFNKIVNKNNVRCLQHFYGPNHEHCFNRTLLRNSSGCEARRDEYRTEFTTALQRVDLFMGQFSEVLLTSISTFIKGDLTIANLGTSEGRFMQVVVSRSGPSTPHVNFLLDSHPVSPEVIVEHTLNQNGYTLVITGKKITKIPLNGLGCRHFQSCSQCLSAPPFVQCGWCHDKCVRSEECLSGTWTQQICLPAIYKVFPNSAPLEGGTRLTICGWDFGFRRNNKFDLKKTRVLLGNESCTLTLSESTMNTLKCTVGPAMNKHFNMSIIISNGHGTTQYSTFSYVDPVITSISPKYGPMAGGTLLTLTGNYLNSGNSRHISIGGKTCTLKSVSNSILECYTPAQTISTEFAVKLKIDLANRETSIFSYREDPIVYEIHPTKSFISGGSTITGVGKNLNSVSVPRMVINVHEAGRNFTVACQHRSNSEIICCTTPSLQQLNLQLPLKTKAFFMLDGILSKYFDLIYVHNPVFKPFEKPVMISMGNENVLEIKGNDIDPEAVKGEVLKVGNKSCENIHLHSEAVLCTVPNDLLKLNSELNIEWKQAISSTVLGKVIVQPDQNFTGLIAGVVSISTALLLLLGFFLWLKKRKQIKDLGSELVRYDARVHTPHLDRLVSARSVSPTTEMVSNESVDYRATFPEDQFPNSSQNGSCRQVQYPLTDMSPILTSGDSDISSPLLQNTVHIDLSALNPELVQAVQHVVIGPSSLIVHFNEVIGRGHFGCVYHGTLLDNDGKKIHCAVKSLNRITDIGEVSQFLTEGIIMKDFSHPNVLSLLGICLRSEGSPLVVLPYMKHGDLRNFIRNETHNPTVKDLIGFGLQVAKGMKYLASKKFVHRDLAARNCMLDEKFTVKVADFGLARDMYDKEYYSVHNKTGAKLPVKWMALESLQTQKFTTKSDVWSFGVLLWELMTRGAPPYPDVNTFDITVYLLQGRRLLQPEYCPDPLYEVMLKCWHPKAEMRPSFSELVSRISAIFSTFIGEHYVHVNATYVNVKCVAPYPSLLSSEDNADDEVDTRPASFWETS

| Binder | Relative Migration (%) (HUVEC migration assay) [1] | Index 2 (affinity index normalised to VH0/Vk0) [2] | Relative KD to VH0/Vk0 [3] | Kd [4] [nM] | Index 1 (affinity index from KD) [5] |
| --- | --- | --- | --- | --- | --- |
| B1 | 128 | 1.48 | 0.68 | 0.352 | 1 |
| B2 |  |  | 0.97 | 0.502 |  |
| B3 |  |  | 1.03 | 0.534 |  |
| B4 | 163 | 1.02 | 0.98 | 0.512 | 0.688 |
| B5 | 152 | 1.26 | 0.8 | 0.414 | 0.85 |
| B6 | 122 | 1.32 | 0.76 | 0.395 | 0.891 |
| B7 | 154 | 1.18 | 0.85 | 0.44 | 0.8 |
| B8 | 176 | 1.24 | 0.81 | 0.42 | 0.838 |
| B9 | 177 | 1.23 | 0.81 | 0.423 | 0.832 |
| B10 | 150 | 1 | 1 | 0.52 | 0.677 |
